The source of these data is patent USRE47150 (Bayer, dated 2018).

The labels stand for the following.
B1: 2A8 HC_S31P (Fab, V domains shown)
VH: QVQLVESGGGLVQPGGSLRLSCAASGFTFRPYGMSWVRQAPGKGLEWVSSIRGSSSSTYYADSVKGRFTISRDNSKNTLYLQMNSLRAEDTAVYYCARKYRYWFDYWGQGTLVTVSS
VL: DIELTQPPSVSVAPGQTARISCSGDNLRNYYAHWYQQKPGQAPVVVIYYDNNRPSGIPERFSGSNSGNTATLTISGTQAEDEADYYCQSWDDGVPVFGGGTKLTVLG
notes: also called 2A8-2
B2: 2A8 HC_S31V (Fab, V domains shown)
VH: B1 VH with P31V
VL: B1 VL
notes: also called 2A8-3
B3: 2A8 HC_S35D (Fab, V domains shown)
VH: B1 VH with P31S, S35D
VL: B1 VL
notes: also called 2A8-4
B4: 2A8 LC_D91L (Fab, V domains shown)
VH: B1 VH with P31S
VL: B1 VL with D91L
notes: also called 2A8-16
B5: 2A8 LC_D91W (Fab, V domains shown)
VH: B1 VH with P31S
VL: B1 VL with D91W
notes: also called 2A8-17
B6: 2A8 HC_S54F (Fab, V domains shown)
VH: B1 VH with P31S, S54F
VL: B1 VL
notes: also called 2A8-7
B7: 2A8 LC_Y48F (Fab, V domains shown)
VH: B1 VH with P31S
VL: B1 VL with Y48F
notes: also called 2A8-14
B8: 2A8-g200 (HC Q1E+R30S+S35D+S55R+S56G+K99L/LC D1S+I2Y+A13S+S21T+R28P+N29K+Y48F+N51V+E80M+S89A+D91W+D92S+G93S+V94T) (Fab, V domains shown)
VH: B1 VH with Q1E, R30S, P31S, S35D, S55R, S56G, K99L
VL: SYELTQPPSVSVSPGQTARITCSGDNLPKYYAHWYQQKPGQAPVVVIFYDVNRPSGIPERFSGSNSGNTATLTISGTQAMDEADYYCQAWWSSTPVFGGGTKLTVLG
B9: 2A8-g216 (HC S31V+I51D+S55R+K99V/LC D1S+I2Y+A13S+S21T+R28P+N29K+Y48F+N51S+E80M+D91L+D92S+V94T+V96W) (Fab, V domains shown)
VH: B1 VH with P31V, I51D, S55R, K99V
VL: B8 VL with V51S, A89S, W91L, S93G, V96W
B10: 2A8-227 (HC S35D+K99L/LC Y48F+D91L+V96W) (Fab, V domains shown)
VH: B1 VH with P31S, S35D, K99L
VL: B1 VL with Y48F, D91L, V96W

Substitutions are numbered along the chain they refer to. Names may count otherwise.

The target of the first test is T1, human tissue factor pathway inhibitor (TFPI) (human, UniProt P10646 29-304, limits assumed).
T1 construct: bought; also called hTFPI; human TFPI
T1 sequence (looked up): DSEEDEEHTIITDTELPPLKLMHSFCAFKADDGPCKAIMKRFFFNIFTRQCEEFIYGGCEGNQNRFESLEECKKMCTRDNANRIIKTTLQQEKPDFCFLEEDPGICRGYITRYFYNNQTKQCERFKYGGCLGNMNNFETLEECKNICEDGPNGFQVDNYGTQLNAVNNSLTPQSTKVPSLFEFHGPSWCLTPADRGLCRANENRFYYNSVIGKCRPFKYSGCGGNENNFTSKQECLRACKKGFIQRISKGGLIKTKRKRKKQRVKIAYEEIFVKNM
The test can be described thus: competitive ELISA. For orientation: An ELISA detects its analyte on a solid surface through an enzyme-linked reagent.
In the case of B1, the variant/wild-type was determined as 3.6 ratio.
On the same count and under the same terms, the same measure for B2: 9.7 ratio.
In turn, B3 gave a variant/wild-type of 4.3 ratio.
Same read-out and setting: the same measure for B4: 4.2 ratio.
On the same count and under the same terms, the same measure for B5: 7.4 ratio; for B6: 6.5 ratio; for B7: 4.6 ratio.

A further test deals with T2, mouse tissue factor pathway inhibitor (TFPI) (mouse, UniProt O54819 29-289, limits assumed).
T2 construct: bought; also called mTFPI; murine TFPI
T2 sequence (looked up): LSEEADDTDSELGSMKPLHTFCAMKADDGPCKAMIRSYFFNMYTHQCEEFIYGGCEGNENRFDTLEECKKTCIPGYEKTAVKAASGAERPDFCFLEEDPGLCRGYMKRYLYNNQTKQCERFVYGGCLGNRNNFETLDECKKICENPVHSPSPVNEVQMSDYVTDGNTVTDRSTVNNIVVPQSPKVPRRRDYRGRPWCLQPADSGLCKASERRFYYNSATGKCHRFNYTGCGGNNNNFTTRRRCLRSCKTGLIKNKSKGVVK
Nature of the test: competitive ELISA.
For B1, the variant/wild-type came out at 2.4 ratio.
In turn, B2 had a variant/wild-type of 7.4 ratio.
B3 registered a variant/wild-type of 2.6 ratio.
Still for that read-out and setting: the value for B4 was 1.6 ratio.
B5 had a variant/wild-type of 4 ratio.
The same measure, in the same setting: the value for B6 was 3.1 ratio; that for B7 was 3.2 ratio.

Another test deals with T1, human tissue factor pathway inhibitor …. The test can be described thus: competitive ELISA. This is another data set of the same source.
As to B8, the variant/HC_K99L was 18.3 ratio.
Same read-out and setting: the same measure for B9: 19.6 ratio; for B10: 18.8 ratio.

In another test the target is T2, mouse tissue factor pathway inhibitor …. Nature of the test: competitive ELISA. This is another data set of the same source.
In turn, B8 gave a variant/HC_K99L of 13.3 ratio.
The same measure, in the same setting: the value for B9 was 21.4 ratio.
Still for that read-out and setting: the value for B10 was 18.2 ratio.

The next test concerns the target T1, human tissue factor pathway inhibitor …. The test can be described thus: SPR, TFPI immobilized. On the technique in general: Surface plasmon resonance follows binding to a sensor surface in real time, without labels.
B1 displayed an Improvement of 1.95 fold, a Kd of 1.15 nM, a koff of 0.00333 s⁻¹ and a kon of 2.91e+06 M⁻¹ s⁻¹.
Taken in the same sequence, the figures for B2 were 6 fold, 0.373 nM, 0.00143 s⁻¹ and 3.84e+06 M⁻¹ s⁻¹.
Taken in the same sequence, the figures for B3 were 2.35 fold, 0.95 nM, 0.0038 s⁻¹ and 4.01e+06 M⁻¹ s⁻¹.
On the same counts, the results for B4 are 2.24 fold, 0.999 nM, 0.0044 s⁻¹ and 4.41e+06 M⁻¹ s⁻¹.
B5 yielded an Improvement of 2 fold, a Kd of 1.12 nM, a koff of 0.00432 s⁻¹ and a kon of 3.86e+06 M⁻¹ s⁻¹.
In the case of B6, the Improvement was determined as 3.08 fold, the dissociation constant (Kd) was found to be 0.727 nM, the koff stood at 0.00204 s⁻¹ and the kon came out at 2.81e+06 M⁻¹ s⁻¹.
On the same counts, the results for B7 are 1.97 fold, 1.14 nM, 0.003 s⁻¹ and 2.64e+06 M⁻¹ s⁻¹.

For another test, the target named is T2, mouse tissue factor pathway inhibitor …. Nature of the test: SPR, TFPI immobilized.
B1: the Improvement is 1.71 fold; the affinity, expressed as Kd, was 2.06 nM; the koff stood at 0.00316 s⁻¹; the association rate constant (kon) worked out at 1.53e+06 M⁻¹ s⁻¹.
On the same counts, the results for B2 are 5.91 fold, 0.595 nM, 0.00202 s⁻¹ and 3.39e+06 M⁻¹ s⁻¹.
On the same counts, the results for B3 are 1.78 fold, 1.98 nM, 0.00246 s⁻¹ and 1.25e+06 M⁻¹ s⁻¹.
Turning to B5, the Improvement was determined as 4.32 fold, binding was put at a Kd of 0.814 nM, the koff was 0.00232 s⁻¹ and the kon was 2.86e+06 M⁻¹ s⁻¹.
Taken in the same sequence, the figures for B6 were 1.69 fold, 2.07 nM, 0.00183 s⁻¹ and 884000 M⁻¹ s⁻¹.

The target in another test is T1, human tissue factor pathway inhibitor …. The test can be described thus: SPR, TFPI immobilized. This is another data set of the same source.
For B8, the KD fold improvement amounted to 31.7 fold, binding was put at a Kd of 0.0584 nM, the dissociation rate constant (koff) is 3.61e-05 s⁻¹ and the kon was determined as 617000 M⁻¹ s⁻¹.
On the same counts, the results for B9 are 50.7 fold, 0.0365 nM, 5.29e-05 s⁻¹ and 1.45e+06 M⁻¹ s⁻¹.
On the same counts, the results for B10 are 49.4 fold, 0.0375 nM, 0.000123 s⁻¹ and 3.28e+06 M⁻¹ s⁻¹.

A further test has as its target T2, mouse tissue factor pathway inhibitor …. The test can be described thus: SPR, TFPI immobilized. The source holds these as a separate data set.
In turn, B8 registered a KD fold improvement of 27.3 fold, a Kd of 0.121 nM, a koff of 0.000139 s⁻¹ and a kon of 1.15e+06 M⁻¹ s⁻¹.
Taken in the same sequence, the figures for B9 were 41.6 fold, 0.0791 nM, 7.78e-05 s⁻¹ and 984000 M⁻¹ s⁻¹.
Taken in the same sequence, the figures for B10 were 21.4 fold, 0.153 nM, 0.00106 s⁻¹ and 6.91e+06 M⁻¹ s⁻¹.

In another test the target is recombinant TFPI of the FXa restoring assay (human, mouse or rat; not specified for Tables 9 and 10). The test can be described thus: cell-based or functional assay.
In the case of B1, the “IC50, FXa restoring assay” value worked out at 0.33 µg/mL and the “Improvement vs parental, FXa restoring assay” value (from here on “Improvement vs parental”) was 1.7 fold.
On the same counts, the results for B2 are 0.201 µg/mL and 3.5 fold.
Taken in the same sequence, the figures for B3 were 0.55 µg/mL and 1.1 fold.
On the same counts, the results for B4 are 0.37 µg/mL and 1.7 fold.
As to B5, the “IC50, FXa restoring assay” value was 0.23 µg/mL and the “Improvement vs parental” value worked out at 3 fold.
Taken in the same sequence, the figures for B6 were 0.35 µg/mL and 2 fold.
In the case of B7, the “IC50, FXa restoring assay” value turned out to be 0.34 µg/mL and the “Improvement vs parental” value was found to be 1.9 fold.

For orientation: Kd means a measure of binding affinity in units of concentration. A lower Kd goes with tighter binding. The koff is a measure of how fast the partners let go of each other. A low value points to slow dissociation. As usually defined, the kon is a measure of how fast the partners come together. A lower kon goes with slow association.
